Measurements: US20160340402A1 (ALMAC DISCOVERY, published 2016)

Target: the molecule itself
Experiment: SDS PAGE and native PAGE, non-reducing against reducing conditions (self-association)

B1: full length recombinant His-tagged FKBP-L protein (variant Thr181, Gly186), N-terminal poly-histidine tag (other)
chain: MRGSHHHHHHGMASMTGGQQMGRDLYDDDDKDRWGSMETPPVNTIGEKDTSQPQQEWEKNLRENLDSVIQIRQQPRDPPTETLELEVSPDPASQILEHTQGAEKLVAELEGDSHKSHGSTSQMPEALQASDLWYCPDGSFVKKIVIRGHGLDKPKLGSCCRVLALGFPFGSGPPEGWTELTMGVGPWREETWGELIEKCLESMCQGEEAELQLPGHTGPPVGLTLASFTQGRDSWELETSEKEALAREERARGTELFRAGNPEGAARCYGRALRLLLTLPPPGPPERTVLHANLAACQLLLGQPQLAAQSCDRVLEREPGHLKALYRRGVAQAALGNLEKATADLKKVLAIDPKNRAAQEELGKVVIQGKNQDAGLAQGLRKMFG
notes: also called recombinant FKBP-L; rFKBP-L
binding result: binds
